Experimental data: the nanobody polyreactivity screen of Harvey et al. (2022)

Experiment: yeast display, Sf9 membrane polyspecificity reagent, FACS + sequencing; frameworks hold sequencing errors
Summary of the method: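 Galactose-induced (36–48 hours) yeast carrying a synthetic nanobody display library were exposed to 10% biotinylated, detergent-solubilized Sf9 membrane reagent at 4 °C for 1 hour. FACS followed streptavidin microbead enrichment, using low and high (top ~1%) gates for expression (anti-HA) and reagent binding (streptavidin). Colony PCR, MiSeq 2 × 250 sequencing and CDR-length filtering followed. Labels for polyreactivity reflect the gate of origin.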

Which “polyreactivity (PSR sort gate)” value does the source give for “QVQLVESGGGLVQAGGSLRLSCAASGRTFRYYAMGWYRQAPGKERELVAAITVTVTSTFYADSVKGRFTISRDNAKNTVYLQMNSLKPEDTAVYYCAKVDRQYPGQYYYWGQGTQVTVSS” here?
Its value is “low polyreactivity”.

For “QVQLVESGGGLVQAGGSLRLSCAASGRTFRYYAMGWYRQAPGKERELVAAITWSVGSTYYADSVKGRFTISRDNAKNTVYLQMNSRKPEDTAVYYCAADRVRGGYRTYYWVVHFDYWGQGTQVTVSS”, which “polyreactivity (PSR sort gate)” value is on record?
Its value is “high polyreactivity”.

With “QVQLVESGGGLVQAGGSLRLSCAASGRTFRYYAMGWYRQAPGKERELVARISWRGDSTRYADSVKGRFTISRDNAKNTVYVQMNSLKPEDTAVYYCAADTRFLVGPDKYGYWGQGTQVTESS” as the sequence, how does the “polyreactivity (PSR sort gate)” value read?
The value was “high polyreactivity”.

For “QVQLVESGGGLVQAGGSLRLSCAASGRTFRYYAMGWYRQAPGKERELVATSTGSGGSTYYADSVKGRFTISRDNSKNTVYLQMNSLKPEDTAVYYCNARKVRYPYRWYDYWGQGTQVTVSS”, which “polyreactivity (PSR sort gate)” value is on record?
The value was “high polyreactivity”.

With “QVQLVESGGGLVQAGGSLRLSCAASGRTFRYYAMGWYRQARGKERELVAAISKTGGSTYYADSVKGRFTISRDNAKNTVYLQMNSQKPEDTAVYYCAAQSGWGYSTFYYWGQGTQVTVSS” as the sequence, how does the “polyreactivity (PSR sort gate)” value read?
The value was “high polyreactivity”.

For “QVQLVESGGGLVQAGGSLRLSCAASGRTFRYYSMGWYRQAPGKERELVAAITGSGARTYYADSVKGRFTISRDNAKNTVYLQMNSLKPEDTAVYYCAADSLFYDDRYDYWGQGTQVTVSS”, which “polyreactivity (PSR sort gate)” value is on record?
Its value is “high polyreactivity”.

Which “polyreactivity (PSR sort gate)” value does the source give for “QVQLVESGGGLVQAGGSLRLSCAASGRTFRYYTMGWYRQAPGKEREFVAAISSTGGTYYADSVKGRFTISRDNAKNTVYLLMNSLNPEDTAVYYCAATFIQVVVNVQLYDYDYWGQGTQVTVSS” here?
The value was “low polyreactivity”.

With “QVQLVESGGGLVQAGGSLRLSCAASGRTFRYYTMGWYRQAPGKEREFVAAISSTGGTYYADSVKGRFTISRDNAKNTVYLQMNRLKPEDSAVYYCAATFIQVVVNVQLYDYDYWGQGTQVTVSS” as the sequence, how does the “polyreactivity (PSR sort gate)” value read?
Its value is “low polyreactivity”.

For “QVQLVESGGGLVQAGGSLRLSCAASGRTFRYYTMGWYRQAPGKERELVAAITRNGGRTYYADSVKGRFTISRDNAKNTVDLQMNSLKPEDPAVYYCAPGTYDGGYHYDYWGQGTQVTVSS”, which “polyreactivity (PSR sort gate)” value is on record?
The value was “high polyreactivity”.

Which “polyreactivity (PSR sort gate)” value does the source give for “QVQLVESGGGLVQAGGSLRLSCAASGRTFRYYTMGWYRQAPGKERQFVAAISSTGGTYYADSVKGRFTISRDNAKNTVYLQMNSLKPADTAVYYCAATFIQVVVNVQLYDYDYWGQGTQVTVSS” here?
The value was “low polyreactivity”.

For “QVQLVESGGGLVQAGGSLRLSCAASGRTFRYYVMGWYRPAPGKERELVASITSNGDSTYYADSVKGRFTISRDNAKNTVFLQWKSLKPEDTAVDYCAVRWRDYRGSYRGFEYWGQGSQVTVSS”, which “polyreactivity (PSR sort gate)” value is on record?
Its value is “high polyreactivity”.

With “QVQLVESGGGLVQAGGSLRLSCAASGRTFRYYVMGWYRQAPGKERELVAGISGSGGNTYYADSVKGRFTISRDNAKNTVYLQMNSLKPEDTAVYYCAARQRGSVGVPYNSWGQGTQVTVSW” as the sequence, how does the “polyreactivity (PSR sort gate)” value read?
The value was “high polyreactivity”.

For “QVQLVESGGGLVQAGGSLRLSCAASGRTFSANAMGWYRQAPGKDRELVAANRRTGGRTYYADSVKGRFTISRDNAKNTDYLQMNSLKPEDTAVYYCKAVNKPYTREYGYDYWGQGTQGTVSS”, which “polyreactivity (PSR sort gate)” value is on record?
Its value is “high polyreactivity”.

Which “polyreactivity (PSR sort gate)” value does the source give for “QVQLVESGGGLVQAGGSLRLSCAASGRTFSANAMGWYRQAPGKERELVATISSGGRTNYADSVKGRFTISRDNAKNTVYLQMNSLKPEDTAVYYCAKRGPYNRWYGRYDYWGQGTQVTVSS” here?
The value was “low polyreactivity”.

For “QVQLVESGGGLVQAGGSLRLSCAASGRTFSAYAMGWYRQAPGKEMELVARITSVDSTNYADSVKGRFTISRDNAKNTVYLQMNSLKPEDTAVYYCNATFGYPFVDYDDYWGQGTQVTVSS”, which “polyreactivity (PSR sort gate)” value is on record?
The value was “low polyreactivity”.

With “QVQLVESGGGLVQAGGSLRLSCAASGRTFSAYAMGWYRQAPGKERELVARITSVDSTNYADSVKGRFTISRDNAKNSVYLQMNSLKPEDTAVYDCNATFGYPFVDYDDYWGQGTQVTVSS” as the sequence, how does the “polyreactivity (PSR sort gate)” value read?
Its value is “low polyreactivity”.

Which “polyreactivity (PSR sort gate)” value does the source give for “QVQLVESGGGLVQAGGSLRLSCAASGRTFSENAMGWYRQAPGKERELVAAISGSGGRTYYADSVKGRFTISRDNAKNTVYLQMNILKPEDTAVYFCGKVTRYGSTYDYWGQGTQVTVSS” here?
Its value is “high polyreactivity”.

For “QVQLVESGGGLVQAGGSLRLSCAASGRTFSFYAMGWYRQAPGKERELVAAISSGGGRTYYADSVKGRFTISRDNAKNTVYLQMHSLKPEDTAVYYCAAYRAYSGEFDYWGQGTQVTVSS”, which “polyreactivity (PSR sort gate)” value is on record?
The value was “high polyreactivity”.

For “QVQLVESGGGLVQAGGSLRLSCAASGRTFSGNAMGWYRQAPGKERELVAAITSGSSTYYADSVKGRFTISRDNAKNTVYLQMNSLKPEDTAVYYCAARSVYGSSFLSYGYWGQGTQVTVSS”, which “polyreactivity (PSR sort gate)” value is on record?
The value was “high polyreactivity”.

With “QVQLVESGGGLVQAGGSLRLSCAASGRTFSGNTMGWYRQAPGKERELVAAITGRGGSTYYADSVKGRFTISRDNANNTVYLQMNSLKPEDTAVYYCAALRYTFAGRFDYWGQGTQVTVSS” as the sequence, how does the “polyreactivity (PSR sort gate)” value read?
The value was “high polyreactivity”.

With “QVQLVESGGGLVQAGGSLRLSCAASGRTFSGYAMGWYRQAPGKERELVAAITNRGGTYYADSVKGRFTISRDNAKNTVYVQMNSLKPEDTAVYSCAAYKYYARWVRGYDSWGQGTQVTVSS” as the sequence, how does the “polyreactivity (PSR sort gate)” value read?
Its value is “high polyreactivity”.

Which “polyreactivity (PSR sort gate)” value does the source give for “QVQLVESGGGLVQAGGSLRLSCAASGRTFSGYTMGWYRQAPGKERELVAGISRSGGRTYYADSVKGRFTISRDNAKKTVYLQMNSLKPEDTAVYYCATPYRRLNTWIYDYWGQGTQVTVSS” here?
Its value is “high polyreactivity”.

With “QVQLVESGGGLVQAGGSLRLSCAASGRTFSGYVMGWYRQAPGKERELVATINGSGASTYYADSVKGRFTISRDNAKNTVYLQRKSLKPEDSAVYYCAAKRYRPKYEYYYWGQGTQVTVSS” as the sequence, how does the “polyreactivity (PSR sort gate)” value read?
The value was “high polyreactivity”.

Which “polyreactivity (PSR sort gate)” value does the source give for “QVQLVESGGGLVQAGGSLRLSCAASGRTFSHNAMGWYRQAPGKERELVAAISRGGGTNYADSVKGRFTISRDNAKNTVYLQMNSLKPEDTAVYYCAAAGYDSNGRYYYWGQGTQVTVSS” here?
Its value is “high polyreactivity”.

For “QVQLVESGGGLVQAGGSLRLSCAASGRTFSHNTMGWYRQAPGKERELVAAITGSGASTYYADSVKGRFTISRDNAKNTVYLQMNSLKPEDTAVYYCAKVSRQSWYEYDSWGQVTQVTVSS”, which “polyreactivity (PSR sort gate)” value is on record?
The value was “low polyreactivity”.

For “QVQLVESGGGLVQAGGSLRLSCAASGRTFSINAMGWYRQAPGKERELVAAITWSGGSTYYADSVKGRFTISRDNAKNTVYLQMNSLKPEDTAVYYCNAGLGKFPVKGGRRYRLDYWGQGTQVTVSS”, which “polyreactivity (PSR sort gate)” value is on record?
Its value is “low polyreactivity”.

Which “polyreactivity (PSR sort gate)” value does the source give for “QVQLVESGGGLVQAGGSLRLSCAASGRTFSIYAMGWYRQAPGKERELVASITNSDGSTYYADSVKGRFTISRDNAKNTVYLQMNSLKPEDTAVYYWNVDSGKYWSLWTYVQYDDYWGQGTQVTVSS” here?
The value was “low polyreactivity”.

Which “polyreactivity (PSR sort gate)” value does the source give for “QVQLVESGGGLVQAGGSLRLSCAASGRTFSKNVMGWYRQAPGKEREFVARISDSGVGTYYADSVKGRFTISRDNAKNTVYLQMNSLKPEDTAVYYCAAAVWYRGWYRYDYWGQGTQVTVSS” here?
The value was “low polyreactivity”.

For “QVQLVESGGGLVQAGGSLRLSCAASGRTFSKNVMGWYRQAPGKEREFVARISDSGVGTYYADSVKGRFTISRDNAKNTVYLQMNSLKPEDTAVYYCDKQYGGRYGYWGQGTQVTVSS”, which “polyreactivity (PSR sort gate)” value is on record?
Its value is “low polyreactivity”.

With “QVQLVESGGGLVQAGGSLRLSCAASGRTFSKYAMGWYRQAPGKERELVAAITDGRGDTYYADSVKGRFTISRDNEKNTVYLQMNSLKPEDTAVYYCAADPGYSLYEYWGQGTQVTVSS” as the sequence, how does the “polyreactivity (PSR sort gate)” value read?
Its value is “low polyreactivity”.

For “QVQLVESGGGLVQAGGSLRLSCAASGRTFSKYAMGWYRQAPGKERELVAAITSGGGTYYADSVKGRFTNSRDNAKNTVYLQMNSLIPEDTGVYSCAVSVTTVSTYDYWGQGTQVTVSS”, which “polyreactivity (PSR sort gate)” value is on record?
Its value is “low polyreactivity”.

With “QVQLVESGGGLVQAGGSLRLSCAASGRTFSKYTMGWYRQAPGKERELVAVISRSGTRTYYADSVKGRFTISRDNAKNTVYLQMNSLKPEDTAVYYCAAKDERRSFGMGYWGQGPQVTVSS” as the sequence, how does the “polyreactivity (PSR sort gate)” value read?
Its value is “high polyreactivity”.

For “QVQLVESGGGLVQAGGSLRLSCAASGRTFSLNTMGWYRQAPGTERELVATISYSGDRTYYADSVKGRFTISRDNAKNTVYLQMNSLKPEETAVYYCAAQYWGRSYAGRYDYWGQGTQVTVSS”, which “polyreactivity (PSR sort gate)” value is on record?
The value was “high polyreactivity”.

For “QVQLVESGGGLVQAGGSLRLSCAASGRTFSLYTMGWYRQAPGKERELVAAISSGDSTNYADSVKGRFTISRDNAKNTVYLQMNSLKPEDTAVYYCAKQQDSTSEFSTSDRRQYDYWGQGTQVTVSS”, which “polyreactivity (PSR sort gate)” value is on record?
The value was “low polyreactivity”.

With “QVQLVESGGGLVQAGGSLRLSCAASGRTFSNAMGWYRQAPGKERELVADISSGGSTNYADSVKGRFTISRDNAKNTVYLQMNSLKPEDTAVYYCAAVSGSLYGYSDDYWGQGTQVTVSS” as the sequence, how does the “polyreactivity (PSR sort gate)” value read?
The value was “low polyreactivity”.

Which “polyreactivity (PSR sort gate)” value does the source give for “QVQLVESGGGLVQAGGSLRLSCAASGRTFSNYAIGWYRQAPGKEREFVSDISWSVGSTYYADSVKGRFTISRDNAKNTVYLQMNSLKPEDTALYYCATEVPVGGQRHLFKYYYWGQGTQVTVSS” here?
The value was “low polyreactivity”.

For “QVQLVESGGGLVQAGGSLRLSCAASGRTFSNYAMGWYRQAPGKERELVAAISSGGSTNYADSVKGRFTISRDNAKNTVYLLMNSLKPEDTAVYYCAARQRAYYGPGFDYWGQGTQVTVSS”, which “polyreactivity (PSR sort gate)” value is on record?
The value was “low polyreactivity”.

For “QVQLVESGGGLVQAGGSLRLSCAASGRTFSNYVMGWYRQAPAKERELVAAITYSGGSTYYADSVKGRFTISRDNATNTVYLQMNSLKPEDTAVYYCARRWGGRGYYYWGQGTQVTVSS”, which “polyreactivity (PSR sort gate)” value is on record?
The value was “high polyreactivity”.

For “QVQLVESGGGLVQAGGSLRLSCAASGRTFSPYAMGWYRQAPGKERDLVAAINGGGGTTYYADSVKGRFTISRDNAKNTVYLQMNSLKPEDTAVYYCAAGYNYTSYADLDYWGQGTQVTVSS”, which “polyreactivity (PSR sort gate)” value is on record?
Its value is “low polyreactivity”.

For “QVQLVESGGGLVQAGGSLRLSCAASGRTFSPYDMGWSRQAPGKERELVAAISFSDTITYYADSVKGRFTISRDNAKNTVYLQMNSLKPEDTAVYYCAADAGGYYEWELYDYWGQGTQVTVSS”, which “polyreactivity (PSR sort gate)” value is on record?
The value was “low polyreactivity”.
